T1: full-length human nephrocystin-5 (NPHP5), yeast two-hybrid fusion (human, UniProt Q15051 1-598)
T1 construct: Full-length NPHP5 cDNA (598 amino acid residues) fused to a GAL4 domain; also called KIAA0036
T1 sequence: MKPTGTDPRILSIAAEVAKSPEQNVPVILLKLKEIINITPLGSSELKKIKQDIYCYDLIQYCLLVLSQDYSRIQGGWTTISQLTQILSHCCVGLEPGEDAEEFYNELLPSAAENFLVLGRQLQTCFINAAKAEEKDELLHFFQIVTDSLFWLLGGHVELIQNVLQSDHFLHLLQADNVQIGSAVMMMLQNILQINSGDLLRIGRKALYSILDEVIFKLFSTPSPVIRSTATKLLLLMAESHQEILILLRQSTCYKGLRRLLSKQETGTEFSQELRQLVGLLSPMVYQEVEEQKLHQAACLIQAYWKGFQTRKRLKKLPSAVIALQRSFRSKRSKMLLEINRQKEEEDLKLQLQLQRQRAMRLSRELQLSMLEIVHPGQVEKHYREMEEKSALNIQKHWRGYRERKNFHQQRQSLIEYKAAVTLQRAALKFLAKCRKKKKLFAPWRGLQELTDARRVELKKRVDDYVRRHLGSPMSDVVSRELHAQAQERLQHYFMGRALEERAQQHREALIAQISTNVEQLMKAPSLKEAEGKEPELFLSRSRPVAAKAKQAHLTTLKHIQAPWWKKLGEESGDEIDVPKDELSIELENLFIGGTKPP


Molecular target: T1, full-length human nephrocystin-5 …
Experiment: direct yeast two-hybrid assay

Binder	binding result
BBS8, human full length, yeast two-hybrid prey (other, UniProt Q8TAM2 1-541, looked up, not shown: large carriers) MSSEMEPLLLAWSYFRRRKFQLCADLCTQMLEKSPYDQEPDPELPVHQAAWILKARALTEMVYIDEIDVDQEGIAEMMLDENAIAQVPRPGTSLKLPGTNQTGGPSQAVRPITQAGRPITGFLRPSTQSGRPGTMEQAIRTPRTAYTARPITSSSGRFVRLGTASMLTSPDGPFINLSRLNLTKYSQKPKLAKALFEYIFHHENDVKTIHLEDVVLHLGIYPFLLRNKNHIEKNALDLAALSTEHSQYKDWWWKVQIGKCYYRLGMYREAEKQFKSALKQQEMVDTFLYLAKVYVSLDQPVTALNLFKQGLDKFPGEVTLLCGIARIYEEMNNMSSAAEYYKEVLKQDNTHVEAIACIGSNHFYSDQPEIALRFYRRLLQMGIYNGQLFNNLGLCCFYAQQYDMTLTSFERALSLAENEEEAADVWYNLGHVAVGIGDTNLAHQCFRLALVNNNNHAEAYNNLAVLEMRKGHVEQARALLQTASSLAPHMYEPHFNFATISDKIGDLQRSYVAAQKSEAAFPDHVDTQHLIKQLRQHFAML	no binding
BBS6, human full length, yeast two-hybrid prey (other, UniProt Q9NPJ1 1-570, looked up, not shown: large carriers) MSRLEAKKPSLCKSEPLTTERVRTTLSVLKRIVTSCYGPSGRLKQLHNGFGGYVCTTSQSSALLSHLLVTHPILKILTASIQNHVSSFSDCGLFTAILCCNLIENVQRLGLTPTTVIRLNKHLLSLCISYLKSETCGCRIPVDFSSTQILLCLVRSILTSKPACMLTRKETEHVSALILRAFLLTIPENAEGHIILGKSLIVPLKGQRVIDSTVLPGILIEMSEVQLMRLLPIKKSTALKVALFCTTLSGDTSDTGEGTVVVSYGVSLENAVLDQLLNLGRQLISDHVDLVLCQKVIHPSLKQFLNMHRIIAIDRIGVTLMEPLTKMTGTQPIGSLGSICPNSYGSVKDVCTAKFGSKHFFHLIPNEATICSLLLCNRNDTAWDELKLTCQTALHVLQLTLKEPWALLGGGCTETHLAAYIRHKTHNDPESILKDDECTQTELQLIAEAFCSALESVVGSLEHDGGEILTDMKYGHLWSVQADSPCVANWPDLLSQCGCGLYNSQEELNWSFLRSTRRPFVPQSCLPHEAVGSASNLTLDCLTAKLSGLQVAVETANLILDLSYVIEDKN	no binding
BBS1, human full length, yeast two-hybrid prey (other, UniProt Q8NFJ9 1-593, looked up, not shown: large carriers) MAAASSSDSDACGAESNEANSKWLDAHYDPMANIHTFSACLALADLHGDGEYKLVVGDLGPGGQQPRLKVLKGPLVMTESPLPALPAAAATFLMEQHEPRTPALALASGPCVYVYKNLRPYFKFSLPQLPPNPLEQDLWNQAKEDRIDPLTLKEMLESIRETAEEPLSIQSLRFLQLELSEMEAFVNQHKSNSIKRQTVITTMTTLKKNLADEDAVSCLVLGTENKELLVLDPEAFTILAKMSLPSVPVFLEVSGQFDVEFRLAAACRNGNIYILRRDSKHPKYCIELSAQPVGLIRVHKVLVVGSTQDSLHGFTHKGKKLWTVQMPAAILTMNLLEQHSRGLQAVMAGLANGEVRIYRDKALLNVIHTPDAVTSLCFGRYGREDNTLIMTTRGGGLIIKILKRTAVFVEGGSEVGPPPAQAMKLNVPRKTRLYVDQTLREREAGTAMHRAFQTDLYLLRLRAARAYLQALESSLSPLSTTAREPLKLHAVVQGLGPTFKLTLHLQNTSTTRPVLGLLVCFLYNEALYSLPRAFFKVPLLVPGLNYPLETFVESLSNKGISDIIKVLVLREGQSAPLLSAHVNMPGSEGLAAA	no binding

The next lines start with the values.

binding result	Binder
no binding	BBS5, human full length, yeast two-hybrid prey (other, UniProt Q8N3I7 1-341, looked up, not shown: large carriers) MSVLDALWEDRDVRFDLSAQQMKTRPGEVLIDCLDSIEDTKGNNGDRGRLLVTNLRILWHSLALSRVNVSVGYNCILNITTRTANSKLRGQTEALYILTKCNSTRFEFIFTNLVPGSPRLFTSVMAVHRAYETSKMYRDFKLRSALIQNKQLRLLPQEHVYDKINGVWNLSSDQGNLGTFFITNVRIVWHANMNDSFNVSIPYLQIRSIKIRDSKFGLALVIESSQQSGGYVLGFKIDPVEKLQESVKEINSLHKVYSASPIFGVDYEMEEKPQPLEALTVEQIQDDVEIDSDGHTDAFVAYFADGNKQQDREPVFSEELGLAIEKLKDGFTLQGLWEVMS
no binding	BBS4, human full length, yeast two-hybrid prey (other, UniProt Q96RK4 1-519, looked up, not shown: large carriers) MAEERVATRTQFPVSTESQKPRQKKAPEFPILEKQNWLIHLHYIRKDYEACKAVIKEQLQETQGLCEYAIYVQALIFRLEGNIQESLELFQTCAVLSPQSADNLKQVARSLFLLGKHKAAIEVYNEAAKLNQKDWEISHNLGVCYIYLKQFNKAQDQLHNALNLNRHDLTYIMLGKIHLLEGDLDKAIEVYKKAVEFSPENTELLTTLGLLYLQLGIYQKAFEHLGNALTYDPTNYKAILAAGSMMQTHGDFDVALTKYRVVACAVPESPPLWNNIGMCFFGKKKYVAAISCLKRANYLAPFDWKILYNLGLVHLTMQQYASAFHFLSAAINFQPKMGELYMLLAVALTNLEDIENAKRAYAEAVHLDKCNPLVNLNYAVLLYNQGEKKNALAQYQEMEKKVSLLKDNSSLEFDSEMVEMAQKLGAALQVGEALVWTKPVKDPKSKHQTTSTSKPASFQQPLGSNQALGQAMSSAAAYRTLPSGAGGTSQFTKPPSLPLEPEPAVESSPTETSEQIREK
